In patent US20180079819A1 (IMMUNOGEN, published 2018):

Each binder was assayed against T1, human CD123 (IL-3Rα, interleukin-3 receptor alpha chain) (human, UniProt P26951 19-378) (assay: cell-based or functional assay).
T1 sequence (P26951 19-378): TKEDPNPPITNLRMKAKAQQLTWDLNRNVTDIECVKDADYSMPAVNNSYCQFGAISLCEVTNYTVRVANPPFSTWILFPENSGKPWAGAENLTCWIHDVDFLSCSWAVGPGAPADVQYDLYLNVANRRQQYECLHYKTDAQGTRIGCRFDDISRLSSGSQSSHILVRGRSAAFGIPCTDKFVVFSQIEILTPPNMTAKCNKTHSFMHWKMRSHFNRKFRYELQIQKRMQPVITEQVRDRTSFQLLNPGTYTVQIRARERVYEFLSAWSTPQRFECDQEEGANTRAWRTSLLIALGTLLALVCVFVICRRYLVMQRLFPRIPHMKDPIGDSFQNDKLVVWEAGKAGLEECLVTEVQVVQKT

Binder	IC50, in vitro cytotoxicity on EOL-1 cells [nM]	IC50, in vitro cytotoxicity on KOPN-8 cells [nM]	IC50, in vitro cytotoxicity on MOLM-1 cells [nM]	fold loss of cytotoxicity when CD123 is blocked by the unconjugated chCD123-6 antibody [fold]	IC50, in vitro cytotoxicity on HNT-34 cells [nM]	IC50, in vitro cytotoxicity on SHI-1 cells [nM]	fold loss of cytotoxicity when CD123 is blocked by the unconjugated huCD123-6 antibody [fold]	IC50, in vitro cytotoxicity on OCI-AML4 cells [nM]
huCD123-6Gv4.6-D2 (antibody, human IgG1, kappa, D2 linked at Lys residues; sites not stated; D2 linked at Lys residues; sites and drug load not stated) heavy: not shown light: DIQMTQSPSSLSASVGDRVTITCRASQDINSYLSWFQQKPGKAPKTLIYRVNRLVDGVPSRFSGSGSGNDYTLTISSLQPEDFATYYCLQYDAFPYTFGQGTKVEIKRTVAAPSVFIFPPSDEQLKSGTASVVCLLNNFYPREAKVQWKVDNALQSGNSQESVTEQDSKDSTYSLSSTLTLSKADYEKHKVYACEVTHQGLSSPVTKSFNRGEC	~0.002	~0.005	~0.02	≥ 100				
huCD123-6Rv1.1S2-SeriMab-D8 (antibody, human IgG1, kappa, D8 linked through the oxidized N-terminal Ser on the heavy chain) heavy: not shown light: DIQMTQSPSSMSASVGERVTITCRASQDINSYLSWFQQKPGKSPKTLIYRVNRLVDGVPSRFSGSGSGQDYSLTISSLEPEDMGIYYCLQYDAFPYTFGQGTKLEIKRTVAAPSVFIFPPSDEQLKSGTASVVCLLNNFYPREAKVQWKVDNALQSGNSQESVTEQDSKDSTYSLSSTLTLSKADYEKHKVYACEVTHQGLSSPVTKSFNRGEC			~0.03		~0.002	~0.01	≥ 100	
huCD123-6Gv4.6-CysMab-D5 (antibody, D5 linked through the engineered Cys in the heavy chain CH3 domain (5th to the last residue of SEQ ID NO: 54)) heavy: not shown light: DIQMTQSPSSLSASVGDRVTITCRASQDINSYLSWFQQKPGKAPKTLIYRVNRLVDGVPSRFSGSGSGNDYTLTISSLQPEDFATYYCLQYDAFPYTFGQGTKVEIKRTVAAPSVFIFPPSDEQLKSGTASVVCLLNNFYPREAKVQWKVDNALQSGNSQESVTEQDSKDSTYSLSSTLTLSKADYEKHKVYACEVTHQGLSSPVTKSFNRGEC	~0.002	~0.005	~0.02	≥ 100				
huCD123-6Rv1.1-D2 (antibody, human IgG1, kappa, D2 linked at Lys residues; sites not stated; D2 linked at Lys residues; sites and drug load not stated) heavy: not shown light: DIQMTQSPSSMSASVGERVTITCRASQDINSYLSWFQQKPGKSPKTLIYRVNRLVDGVPSRFSGSGSGQDYSLTISSLEPEDMGIYYCLQYDAFPYTFGQGTKLEIKRTVAAPSVFIFPPSDEQLKSGTASVVCLLNNFYPREAKVQWKVDNALQSGNSQESVTEQDSKDSTYSLSSTLTLSKADYEKHKVYACEVTHQGLSSPVTKSFNRGEC			~0.03		~0.002	~0.01	≥ 100	
huCD123-6Rv1.1-CX1-1-DM1 (antibody, DM1 linked at Lys residues via the triglycyl CX1-1 linker; sites not stated; DM1 linked at Lys residues via the triglycyl CX1-1 linker; average of 4.3 or 6.7 maytansinoid per antibody, sites not stated) heavy: not shown light: DIQMTQSPSSMSASVGERVTITCRASQDINSYLSWFQQKPGKSPKTLIYRVNRLVDGVPSRFSGSGSGQDYSLTISSLEPEDMGIYYCLQYDAFPYTFGQGTKLEIKRTVAAPSVFIFPPSDEQLKSGTASVVCLLNNFYPREAKVQWKVDNALQSGNSQESVTEQDSKDSTYSLSSTLTLSKADYEKHKVYACEVTHQGLSSPVTKSFNRGEC								0.07

Target: T1, human CD123 (IL-3Rα, interleukin-3 …)
Experiment: cell-based or functional assay
Remark: another data set of the same source

Binder	IC50, in vitro cytotoxicity on EOL-1 cells (AML) [nM]	IC50, in vitro cytotoxicity on HNT-34 cells (AML) [nM]	IC50, in vitro cytotoxicity on JM-1 cells (B-ALL) [nM]	IC50, in vitro cytotoxicity on KASUMI-3 cells (AML) [nM]	IC50, in vitro cytotoxicity on KCL-22 cells (CML) [nM]	IC50, in vitro cytotoxicity on KG-1 cells (AML) [nM]	IC50, in vitro cytotoxicity on KO52 cells (AML) [nM]	IC50, in vitro cytotoxicity on KOPN8 cells (B-ALL) [nM]	IC50, in vitro cytotoxicity on MOLM-1 cells (CML) [nM]	IC50, in vitro cytotoxicity on MOLM-13 cells (AML) [nM]
lysine-linked huCD123-6-IGN conjugate with D1 (antibody, human IgG1, kappa, D1 linked at Lys residues; sites not stated; D1 linked at Lys residues; sites and drug load not given) heavy: not shown light: DIQMTQSPSSMSASVGERVTITCRASQDINSYLSWFQQKPGKSPKTLIYRVNRLVDGVPSRFSGSGSGQDYSLTISSLEPEDMGIYYCLQYDAFPYTFGQGTKLEIKRTVAAPSVFIFPPSDEQLKSGTASVVCLLNNFYPREAKVQWKVDNALQSGNSQESVTEQDSKDSTYSLSSTLTLSKADYEKHKVYACEVTHQGLSSPVTKSFNRGEC	0.0047	0.0059	0.41	0.14	0.29	4.1	0.41	0.03	0.21	0.0012
lysine-linked huCD123-6-IGN conjugate with D3 (antibody, human IgG1, kappa, D3 linked at Lys residues; sites not stated; D3 linked at Lys residues; sites and drug load not given) heavy: not shown light: DIQMTQSPSSMSASVGERVTITCRASQDINSYLSWFQQKPGKSPKTLIYRVNRLVDGVPSRFSGSGSGQDYSLTISSLEPEDMGIYYCLQYDAFPYTFGQGTKLEIKRTVAAPSVFIFPPSDEQLKSGTASVVCLLNNFYPREAKVQWKVDNALQSGNSQESVTEQDSKDSTYSLSSTLTLSKADYEKHKVYACEVTHQGLSSPVTKSFNRGEC	0.0033	0.0032	0.17	0.023	0.95	6.6	0.24	0.022	0.071	0.00046
huCD123-6Rv1.1-D2 (antibody, human IgG1, kappa, D2 linked at Lys residues; sites not stated; D2 linked at Lys residues; sites and drug load not stated) heavy: not shown light: DIQMTQSPSSMSASVGERVTITCRASQDINSYLSWFQQKPGKSPKTLIYRVNRLVDGVPSRFSGSGSGQDYSLTISSLEPEDMGIYYCLQYDAFPYTFGQGTKLEIKRTVAAPSVFIFPPSDEQLKSGTASVVCLLNNFYPREAKVQWKVDNALQSGNSQESVTEQDSKDSTYSLSSTLTLSKADYEKHKVYACEVTHQGLSSPVTKSFNRGEC	0.0025	0.002	0.024	0.0098	0.03	0.22	0.014	0.011	0.029	0.00049

Same assay, conditions: not given

Binder	IC50, in vitro cytotoxicity on MV4-11 cells (AML) [nM]	IC50, in vitro cytotoxicity on OCI-AML2 cells (AML) [nM]	IC50, in vitro cytotoxicity on SHI-1 cells (AML) [nM]	IC50, in vitro cytotoxicity on THP1 cells (AML) [nM]	IC50, in vitro cytotoxicity on Granta519 cells (NHL) [nM]
lysine-linked huCD123-6-IGN conjugate with D1 (antibody, human IgG1, kappa, D1 linked at Lys residues; sites not stated; D1 linked at Lys residues; sites and drug load not given) heavy: not shown light: DIQMTQSPSSMSASVGERVTITCRASQDINSYLSWFQQKPGKSPKTLIYRVNRLVDGVPSRFSGSGSGQDYSLTISSLEPEDMGIYYCLQYDAFPYTFGQGTKLEIKRTVAAPSVFIFPPSDEQLKSGTASVVCLLNNFYPREAKVQWKVDNALQSGNSQESVTEQDSKDSTYSLSSTLTLSKADYEKHKVYACEVTHQGLSSPVTKSFNRGEC	0.0013	0.21	0.032	0.058	
lysine-linked huCD123-6-IGN conjugate with D3 (antibody, human IgG1, kappa, D3 linked at Lys residues; sites not stated; D3 linked at Lys residues; sites and drug load not given) heavy: not shown light: DIQMTQSPSSMSASVGERVTITCRASQDINSYLSWFQQKPGKSPKTLIYRVNRLVDGVPSRFSGSGSGQDYSLTISSLEPEDMGIYYCLQYDAFPYTFGQGTKLEIKRTVAAPSVFIFPPSDEQLKSGTASVVCLLNNFYPREAKVQWKVDNALQSGNSQESVTEQDSKDSTYSLSSTLTLSKADYEKHKVYACEVTHQGLSSPVTKSFNRGEC	0.00054	0.1	0.029	0.03	0.0021
huCD123-6Rv1.1-D2 (antibody, human IgG1, kappa, D2 linked at Lys residues; sites not stated; D2 linked at Lys residues; sites and drug load not stated) heavy: not shown light: DIQMTQSPSSMSASVGERVTITCRASQDINSYLSWFQQKPGKSPKTLIYRVNRLVDGVPSRFSGSGSGQDYSLTISSLEPEDMGIYYCLQYDAFPYTFGQGTKLEIKRTVAAPSVFIFPPSDEQLKSGTASVVCLLNNFYPREAKVQWKVDNALQSGNSQESVTEQDSKDSTYSLSSTLTLSKADYEKHKVYACEVTHQGLSSPVTKSFNRGEC	0.00056	0.088	0.013	0.0067	0.0012
